Source: PMC9776105

Target: single chain variable fragment (scFv) from the CR3022 antibody with a cysteine-containing linker
Assay: SPR

“Spike Receptor Binding Domain SARS-CoV-2 (from UniProt P0DTC2) (domain or fragment)” showed an SPR response in the specificity test of 4.22 ru, a change in Resonance Unit at 50 ng/mL RBD of 1.13 RU and a change in Resonance Unit at 100 ng/mL RBD of 3.01 RU. The change in Resonance Unit at 150 ng/mL RBD was 3.74 RU and the change in Resonance Unit at 200 ng/mL RBD was 3.98 RU.
